From publication PMC9510110, “Assignment of IVL-Methyl side chain of the ligand-free monomeric human MALT1 paracaspase-IgL3 domain in solution” (Biomolecular Nmr Assignments, 2022) come the findings set out here.

The data set deals with the molecule itself. Put plainly: anion-exchange chromatography (Q-Sepharose HP); purification step after Ni2+ Sepharose; monomer and dimer forms separated on the column; followed by SEC on Superdex 200 in 20 mM HEPES 7.4, 50 mM NaCl, 1 mM DTT.

B1: human MALT1(Casp-IgL3)338–719 (domain or fragment, UniProt Q9UDY8 338-719, looked up)
chain: PLAKDKVALLIGNMNYREHPKLKAPLVDVYELTNLLRQLDFKVVSLLDLTEYEMRNAVDEFLLLLDKGVYGLLYYAGHGYENFGNSFMVPVDAPNPYRSENCLCVQNILKLMQEKETGLNVFLLDMCRKRNDYDDTIPILDALKVTANIVFGYATCQGAEAFEIQHSGLANGIFMKFLKDRLLEDKKITVLLDEVAEDMGKCHLTKGKQALEIRSSLSEKRALTDPIQGTEYSAESLVRNLQWAKAHELPESMCLKFDCGVQIQLGFAAEFSNVMIIYTSIVYKPPEIIMCDAYVTDFPLDLDIDPKDANKGTPEETGSYLVSKDLPKHCLYTRLSSLQKLKEHLVFTVCLSYQYSGLEDTVEDKQEVNVGKPLIAKLDMHR
notes: Expressed with isotope labels (2H, 15N, 13C; Ile/Val/Leu methyl labelling) in M9 medium; also called MALT1 paracaspase-IgL3 domain; source: E. coli T7 express, pET21b, purified (Ni2+ Sepharose, Q-Sepharose HP, SEC Superdex 200); not shown: His6, C-terminal, kept
Regarding B1, the binding result is recorded as “binds”.
